We go through 16 molecules from US20240218054A1 (MABLOC, published 2024).

This experiment has as its target T1, recombinant YFV E protein (soluble E, sE; YFV Asibi strain) (Yellow fever virus, Asibi strain, UniProt Q6DV88 286-678).
T1 construct: also called YFV E antigen; YFV E monomer
The experiment can be described thus: BLI monovalent (IgG on tip).

T1 sequence (Q6DV88 286-678): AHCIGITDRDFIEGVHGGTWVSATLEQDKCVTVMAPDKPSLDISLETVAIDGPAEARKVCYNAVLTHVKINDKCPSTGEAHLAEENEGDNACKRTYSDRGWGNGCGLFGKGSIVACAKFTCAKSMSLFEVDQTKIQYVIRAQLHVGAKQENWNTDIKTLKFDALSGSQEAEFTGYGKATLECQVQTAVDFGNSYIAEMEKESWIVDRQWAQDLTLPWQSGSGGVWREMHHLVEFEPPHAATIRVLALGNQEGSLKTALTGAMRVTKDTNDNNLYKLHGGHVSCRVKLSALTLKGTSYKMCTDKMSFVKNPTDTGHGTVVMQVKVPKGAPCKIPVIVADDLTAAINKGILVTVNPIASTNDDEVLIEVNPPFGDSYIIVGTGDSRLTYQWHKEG

B1: ADI-42181 (antibody, V domains shown)
VH: EVQLVESGGGLVQPGGSLRLSCAASGFTFSNYWMNWVRQAPGKGLEWVANIKQDGSEKYYVDSVKGRFTISRDNAKNSLYLQMNSLRAEDTAVYYCARKLSYSSGWYYFDYWGQGTLVTVSS
VL: DIVMTQTPATLSVSPGERATLSCRASQSVSSNVAWYQQKPGQAPRLLIHGASTRATGIPARFSGSGSGTEFTLTISSLQSEDFAVYYCQQYNNWPPLTFGGGTKLEIK
notes: full-length IgG
Regarding B1, the Kd is 31.5 nM.

B2: ADI-42200 (antibody, V domains shown)
VH: EVQLVESGGGVVQPGRSLRLSCAASGLTFSTYTLHWVRQAPGKGLEWVAVISSDGGNKYYADSVKGRFTISRDSSKNTLYLQMNSLRTEDTAVYYCAGGSPDYWGQGALVTVSS
VL: EIVMTQSPATLSLSPGERGTLSCRTSQSVSSFLAWYQQKPGQAPRLLMYDASNRATGIPARFSGSGSGTDFTLTISSLEPEDFAVYYCQQRSNWPYTFGQGTKVDIK
notes: full-length IgG; also called Antibody Number 102
As for B2, the Kd stood at 5.63 nM.

B3: ADI-42227 (antibody, V domains shown)
VH: EVQLLESGAEVKEPGSSVKVSCKPSGGTFSSYVISWVRQAPGQGLEWMGGIIPIFGTPNYAQKFQGRVTITADDSTSTAHMELSSLTSDDTAVYYCARETYYYGSGSVPVHDWGQGTLVTVSS
VL: EIVMTQSPSSLSASVGDRVTITCRASQGIRNDLGWYQQKPGKAPKRLIYAASSLQSGVPSRFSGSGSGREFTLTISSLQPEDFATYYCLQHNTYPWTFGQGTKVEIK
notes: full-length IgG
B3: the Kd is 0.658 nM.

B4: ADI-49139 (antibody, V domains shown)
VH: EVQLVETGSGLVRPSGTLSLTCAVSGDSISSNNWWSWVRQPPGKGLEWIGEIYHSGSTSYNPSLKSRVTISIDKSNNHFSLKLTSVTAADTAVYYCAKDMWAGTTTNWFGPWGQGTLVTVSS
VL: QSVLTQPPSVSAAPGQKVTISCSGSSSNIGYSHVSWYQQLPGTAPKVLIYDNDKRPSGIPDRFSGSKSGTSATLGITGLQTGDEADYYCGTWDTSLGVVFGGGTKLTVL
notes: full-length IgG; also called Antibody Number 11
Regarding B4, the Kd is 3.45 nM.

B5: ADI-42225 (antibody, V domains shown)
VH: QVQLQESGPGLVKPSGTLSLTCAVSGGSITSSNWWSWVRQPPGKGLEWIGDIYHSGSTSYNPSLKSRVTISVDKSKNHFSLKLTSVTAADTAVYYCARIAAGYSTSWYYFDYWGQGTLVTVSS
VL: QSALTQPPSVSAAPGQKVTISCSGSSSNIGNSYVSWYQQVPGTAPKLLIYDNNKRPSGIPDRFSGSKSGTSATLGITGLQAGDEADYYCGTWDTSLSAGRVFGRGTKLTVL
notes: full-length IgG; also called Antibody Number 10
With B5, the Kd amounted to 31.5 nM.

B6: ADI-45074 (antibody, V domains shown)
VH: QVQLQQWGAGLLKPSETLSLTCAVYGGSFSGYYWSWIRQPPGKGLEWIGEINHRGSTDYNPSLKSRVTMSVDTSKNQFSLRLSSVTAADTALYYCARGRLAWGLRGQKSPNFFAYWGQGATVTVSS
VL: DIQMTQSPDSLAVSLGERATINCKSSQSVFYSSNSQNYLAWYQQKPGQPPKLLIYWASTRESGVPDRFSGSGSATDFSLTISSLQAEDVAVYYCQQFHSPPWTFGQGTKLEIK
notes: full-length IgG
For the molecule B6, the Kd was determined as 0.699 nM.

B7: ADI-45126 (antibody, V domains shown)
VH: EVQLVESGGGLVQPGGSLRLSCAASGFTFSDHYMDWVRQAPGKGLEWVGRSTNKPNSYTTTYAASVRGRFTISRDESKNSLYLQMNSLKSDDTAVYYCVTTTVILFDYWGQGTLVTVSS
VL: SYELTQPPSVSVSPGQTARITCSGDALPKKYVYWFQQKSGQAPVLVIYEDRRGPSGIPERFSGSTSGTMATLTIRGAQVEDEADYFCYSTDSSGLLGVFGGGTKLTVL
notes: full-length IgG; also called Antibody Number 106
For the molecule B7, the Kd amounted to 1.68 nM.

B8: ADI-50203 (antibody, V domains shown)
VH: EVQLVESGGGVVQPGRSLRLSCVPSGFTFSSYAMHWVRQAPGKGLEWVAMMSYDGGDKNYADSVKGRFTISRDNSKNTLYLQMRSLRAEDTAIYYCARAYDSRGYYYIEHWGQGTLVTVSS
VL: GIQLTQSPSTLSASVGDRVTITCRASQSVSDWLAWYQQKPGRAPNLLIYRASSLQSGVPSRFSGSGSGTEFTLTINSLQPDDFATYYCQQYKTYWTFGQGTKVEIK
notes: full-length IgG; also called Antibody Number 103
For B8, the Kd is 22.4 nM.

B9: ADI-49039 (antibody, V domains shown)
VH: QVQLQESGPGLVKPSETLSLTCAVSGYSISSGFYWGWIRQPPGKGLEWIGSMYQSGITYYNPSLKSRVTISVDTSKSQFSLKLTSVTAADTAMYYCARNAPENYYGSGRESFDIWGQGTMVTVSS
VL: QSVLTQPPSVSAAPGQKVTISCSGSSSNIGNNYVSWYQQLPGAAPKLLIYDNKKRPSGIPDRFSGSASGTSATMGITGLQTGDEADYYCGTWDSSLSAWVFGGGTKVTVL
notes: full-length IgG; also called Antibody Number 1
Take B9: the equilibrium dissociation constant (Kd) turned out to be 415 nM.

B10: ADI-42229 (antibody, V domains shown)
VH: QVQLQESGPGLVKPSETLSLTCAVSGYSISSGFYWGWIRQPPGKGLEWIGSMYHSGITYYNPSLKSRVTISVDTSKNQFSLKLTSVTAADTAMYYCARNAPENYYGSGRESFDIWGQGTTVTVSS
VL: QSVVTQPPSVSAAPGQKVTISCSGSSSNIGNNYVSWYQQFPRTAPKLLIYDNKKRPSGIPDRFSGSASGTSATLGITGLQTGDEADYYCGTWDSSLSAWVFGGGTKVTVL
notes: full-length IgG; also called Antibody Number 3
Take B10: the equilibrium dissociation constant (Kd) stood at 7.87 nM.

B11: ADI-50220 (antibody, V domains shown)
VH: EVQLVESGGGVVQPGRSLRLSCAASGFIFSSNSMHWVRQAPGKGLKWVAIISNDGRNKFYADAVKGRFTVSRDNSKNTLYLQMNSLRPEDTAVYYCARGYDSSGYWGFGDNWGQGTLVTVSS
VL: DIQVTQSPSTLSASVGDRVSITCRASQTISSWLAWYQQKPGKAPKLLMYKASNLQSGVPSRFTGSGSGTEFTLTISSLQPDDFATYYCQQYYSYPYTFGPGTKVDIK
notes: full-length IgG; also called Antibody Number 110
As to B11, the Kd was found to be 3.64 nM.

B12: ADI-42141 (antibody, V domains shown)
VH: QVQLVQSGGGLVQPGGSLRLSCAASGFTFSDHYMDWVRQAPGKGLEWVGRTRNKANSYTTKYAASVKGRFTISRDDSKNSLYLQMNSLKTEDTAVYYCARVEGGAWGAFDIWGQGTTVTVSS
VL: SYVLTQPPSVSVSPGQTARITCSGDALPKQYGYWYQQKPGQAPVLVIYKDSERPSGIPERFSGSSSGTTVTLTISGVQAEDEADYYCQSADRSGTVVFGGGTKLTVL
notes: full-length IgG; also called Antibody Number 111
For B12, the Kd was determined as 1.75 nM.

B13: ADI-49041 (antibody, V domains shown)
VH: EVQLVESGGGLVKPGGSLRLSCAASGFTFSHAWMTWVRQAPGKGLEWVGRIKSETDGGTANYAAPVKGRFTISRDDSKNTVYLQMVSLKTEDTAVYYCATAGIFGVVIMKGFDHWGQGTTVTVSS
VL: DIVMTQSPSTLSASVGDRVVITCRASQSISNWLAWYQQKSGKAPKLLIYKASRLESGVPSTFSGSGSGTEFTLTISSLQADDFASYYCQQYNDYPWTFGQGTKVEIK
notes: full-length IgG
Regarding B13, the Kd came out at 0.997 nM.

B14: ADI-45127 (antibody, V domains shown)
VH: EVQLVESGPVLVKPTETLRLTCTVSGFSLSNTKLGVSWIRQPPGKALEWLAHIFSNAEKSSSKSLKSRLSISQDTSKSLVVLTMTNMDPVDTATYFCARIPVEYGTPRGSFDTWGQGTTVTVSS
VL: QSVLTQPPSASGSPGQSVTISCAGTRSDVGGYNFVSWYQQHPGKAPKLLIYEVNKRPSGVPDRFSGSKSANTASLTVSGLQAEDEAEYFCSSYGGNNDLVFGGGTKVTVL
notes: full-length IgG; also called Antibody Number 101
Turning to B14, the Kd was found to be 6.69 nM.

B15: ADI-42149 (antibody, V domains shown)
VH: QVQLVQSGAEVRKPGASVKVSCKASGYTFTSYGISWVRQAPGQGLEWMGWISTYNGNTNYAQKLQGRVTMTTDTSTSTAYMELRSLRSDDTAVYYCAREIDSNYVFDYWGQGTLVTVSS
VL: QSVLTQPASVSGSPGQSITISCTGTSSDVGGYNYVSWYQQHPGKAPKLMIYEVSNRPSGVSNRFSGSKSGNTASLTISGLQAEDEADYYCSSYTSSGTNIFGTGTKLTVL
notes: full-length IgG
In the case of B15, the Kd was 177 nM.

B16: ADI-48462 (antibody, V domains shown)
VH: QVQLVQSGGGVVQPGRSLRLSCAASGFTFSSYGMHWVRQAPGKGLEWVAVIWYDGSNKYYADSVKGRFTISRDNSKNTLYLQMNSLRAEDTAVYYCARDYYGSGDGYFDYWGQGTTVTVSS
VL: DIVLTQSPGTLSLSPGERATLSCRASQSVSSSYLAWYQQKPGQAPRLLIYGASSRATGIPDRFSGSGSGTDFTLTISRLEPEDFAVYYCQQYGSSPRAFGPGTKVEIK
notes: full-length IgG; also called Antibody Number 100
Consider B16, for which the Kd was over 100 nM.

As usually defined, the Kd is a measure of binding affinity in units of concentration.
